Experimental findings from doi:10.1101/2025.07.01.662558 (bioRxiv, 2025) are described below.

This experiment concerns the target T1, Hsp90 from S. oneidensis (Hsp90So), purified, non-labeled (S. oneidensis, UniProt Q8EFF7 1-637).
T1 sequence (looked up): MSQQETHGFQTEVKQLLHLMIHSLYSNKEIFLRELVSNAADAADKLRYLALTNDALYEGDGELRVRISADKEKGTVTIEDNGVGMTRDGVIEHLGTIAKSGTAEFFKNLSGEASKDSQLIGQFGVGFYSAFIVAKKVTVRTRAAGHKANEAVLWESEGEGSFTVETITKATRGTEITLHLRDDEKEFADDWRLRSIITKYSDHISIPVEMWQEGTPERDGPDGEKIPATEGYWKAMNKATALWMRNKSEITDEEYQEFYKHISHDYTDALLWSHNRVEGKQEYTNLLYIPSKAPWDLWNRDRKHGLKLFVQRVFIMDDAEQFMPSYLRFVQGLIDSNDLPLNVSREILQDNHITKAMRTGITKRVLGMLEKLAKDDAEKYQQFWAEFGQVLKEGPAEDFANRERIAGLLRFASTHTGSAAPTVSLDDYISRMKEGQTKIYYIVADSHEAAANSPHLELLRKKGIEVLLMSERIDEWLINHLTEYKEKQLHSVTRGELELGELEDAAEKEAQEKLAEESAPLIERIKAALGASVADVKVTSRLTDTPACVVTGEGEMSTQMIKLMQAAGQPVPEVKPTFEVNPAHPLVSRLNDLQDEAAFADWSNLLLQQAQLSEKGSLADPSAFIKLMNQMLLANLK
The experiment is described as follows: MST.

B1: TilS from S. oneidensis (TilSSo), purified, with 6-His tag (natural protein, UniProt Q8EGF9 1-464, looked up)
chain: MTAQDLSVHIARWLDSLPLQAGSKLVLAYSGGVDSEVLAYGLSEYAKQRPDLRYQLIYVHHGLSPNADNWAKHCQARAAIYGLPVTVERVQLILGPRVSVEAEARKARYQAILPHLNPQDILLTAHHEDDQLETILLALKRGQGPKGLAAMGQIQPLSLADKGSCLQVRPLLDISREMIETFAQTRQLVHIEDESNQDDKYDRNFLRLEIIPRLKARWPSIATTASRSAQLCAEQQAIVETEVSERLPKLLVKAPVTEQTVLKLSELAAQPIEWQGILLRGFIESQEFSLPSYVQLQQMLQQLIHAKEDAKVHIRINDCVLRRFAGMLYLDSGETLSTALHITARDLHQEILTLLTQASAMVEDKIVPFALVTTGPRLRLPKADEVVSLGYGLPGQFRCQPHFRDKGRELKKLWQECAVPPWLRAEVGFLFYNDKLVMAFGLWVEKAFCAQGDEIGLSYLIANP
modifications: RED-tris-NTA 2nd generation dye (NanoTemper) on the 6-His tag
For orientation: Kd means the free concentration of one partner at which half of the binding sites on the other are occupied at equilibrium, for simple one-to-one binding. As for B1, the Kd turned out to be 1090 nM.

B2: TilSSoL340P, purified (natural protein, S. oneidensis, UniProt Q8EGF9 1-464, looked up)
chain: MTAQDLSVHIARWLDSLPLQAGSKLVLAYSGGVDSEVLAYGLSEYAKQRPDLRYQLIYVHHGLSPNADNWAKHCQARAAIYGLPVTVERVQLILGPRVSVEAEARKARYQAILPHLNPQDILLTAHHEDDQLETILLALKRGQGPKGLAAMGQIQPLSLADKGSCLQVRPLLDISREMIETFAQTRQLVHIEDESNQDDKYDRNFLRLEIIPRLKARWPSIATTASRSAQLCAEQQAIVETEVSERLPKLLVKAPVTEQTVLKLSELAAQPIEWQGILLRGFIESQEFSLPSYVQLQQMLQQLIHAKEDAKVHIRINDCVLRRFAGMLYLDSGETLSTAPHITARDLHQEILTLLTQASAMVEDKIVPFALVTTGPRLRLPKADEVVSLGYGLPGQFRCQPHFRDKGRELKKLWQECAVPPWLRAEVGFLFYNDKLVMAFGLWVEKAFCAQGDEIGLSYLIANP
modifications: RED-tris-NTA 2nd generation dye (NanoTemper)
As to B2, the binding result is recorded as “binds”.
